The record followed here is US20140011209, “Aptamers for Prion Diagnostics and Aptamer Binding Detection System” (Aptrix Biosystems LLC, published 2014).

The target of series [1] is T1, RVV-X (Russell's viper venom factor X activator) (UniProt Q7LZ61;Q4PRD1;Q4PRD2 Q7LZ61:189-619,Q4PRD1:24-146,Q4PRD2:25-158). The experiment in a line: EMSA; prion binding component alone. To be noted: tags: Haematologic Technologies; label: 32P end; two loops and two short stems.
Another series has as its target alpha-Thrombin (Homo sapiens, UniProt P00734;P00734 P00734:328-363,P00734:364-622). Description: EMSA. To be noted: tags: Haematologic Technologies; label: 32P end; two loops and two short stems.
For series [2], the target named is RVV-X (Russell's viper venom factor X activator) (UniProt Q7LZ61;Q4PRD1;Q4PRD2 Q7LZ61:189-619,Q4PRD1:24-146,Q4PRD2:25-158). The experiment in a line: EMSA. To be noted: tags: Haematologic Technologies; label: 32P end.
Series [3] concerns the target T1, RVV-X (Russell's viper venom factor X …). Description: EMSA. To be noted: tags: Haematologic Technologies; label: 32P end; three loops, two bulges, three stems.
For series [4] the target is unchanged. Description: EMSA; room temperature, 1 h. To be noted: tags: Haematologic Technologies, label: 32P end.
The target is the same in series [5]. The experiment in a line: EMSA; scrambled SEQ 1, negative control. To be noted: tags: Haematologic Technologies; label: 32P end.

B1: B-end (PrPSc binding region) (ssRNA)
RNA: GGGAGACAAGACUAGACGCUCAACUACGAACUCAUGACACAAGGAUGCAAUCUCAUCCCG
For B1, the figures for the dissociation constant (Kd) (in series [1]; with alpha-Thrombin) were 170 nM and 4220 nM, respectively.

B2: SEQ ID NO. 1 (ssRNA)
RNA: UAGCGACAAGGCGACAAGCAAUGACACAUUAACAGACCCUGGUUAGUGAACGAA
For B2, in series [2], binding was characterised by a dissociation constant (Kd) of 30 nM.

B3: SEQ ID NO. 4 (ssRNA)
RNA: UGGCGACGAGGCGGCAGGCAAUGACACAUUAGCAGACCCUGGUUAAUGAGCGAA
Regarding B3, binding in series [2] was characterised by a dissociation constant (Kd) of 158 nM.

B4: SEQ ID NO. 2 (ssRNA)
RNA: AAGGCGAGGUGCGACCCGCACGUGGCAUCUGAUAGCACAUGAAAAGGCACGUCA
As to B4, the Kd in series [2] is 23 nM.

B5: Fus74_10_5 (ssRNA)
RNA: GACCGGGGAGACAAGACUAGACGCUCAACUACGAACUCAUGACACAAGGAUGCAAUCUCAUCCCGACCUUUGCCUAAACAGCUGAUGGUUUACAAAGGAAGCACG
In turn, B5 had a Kd in series [3] of 63.9 nM.

B6: 74 alone (ssRNA)
RNA: UCCUCAAAGCGACCGACCUUUGCCUAAACAGCUGAUGGUUUACAAAGGAAGCACG
Take B6: the affinity in series [2], expressed as Kd, was 75 nM.
As to UCCUCAAAGCGACCGACCUUUGCCUAAACAGCUGAUGGUUUACAA (ssRNA) [74, 10 from 3'], in series [4], binding was put at a Kd of 301 nM.

B7: Scrambled SEQ ID NO. 107 (ssRNA)
RNA: GGAGGCCAACUAAUAACGCCAGAACUAUAGGAAUCCCAUGAAGCGAGCGAGAAUU
For the molecule B7, binding in series [5] was put at a Kd of 131 nM.
Consider AAAGCGACCGACCUUUGCCUAAACAGCUGAUGGUUUACAAAGGAAGCACG (ssRNA) [74, 5 from 5'], for which binding in series [4] was characterised by a dissociation constant (Kd) of 374 nM.
Same read-out and setting: the result for AAAGCGACCGACCUUUGCCUAAACAGCUGAUGGUUUACAAAGGAA (ssRNA) [74, 5 from both] reads 426 nM; that for UCCUCAAAGCGACCGACCUUUGCCUAAACAGCUGAUGGUUUACAAAGGAA (ssRNA) [74, 5 from 3'], 352 nM.

B8: SEQ ID NO. 6 (ssRNA)
RNA: UGGCGGAUACUCUGCGAAGGGCGAACCCAACAUUUCGCACAGGACCGACUACUGCA
In series [2], B8 showed a Kd of 19 nM.

B9: SEQ ID NO. 3 (ssRNA)
RNA: UCUUCCAACGACCAUGCGGCGACAAGCGACUACAAGAGGGUACCCACGGACAGCA
In the case of B9, the dissociation constant (Kd) in series [2] came to 94.7 nM.
The molecule GACCGACCUUUGCCUAAACAGCUGAUGGUUUACAAAGGAAGCACG (ssRNA) [74, 10 from 5'] displayed a Kd in series [4] (stem-loop with bulge) of 250 nM.
